# According to the RNAGym collection of RNA variant scans (doi:10.1073/pnas.2313332121):
# B1: TPR t1 (parent)
# chain: GACCAAUCUGCCCUCAGAGCUCGAGAACAUCUUCGGAUGCAGAGGAGGCAGGCUUCGGUGGCGCGAUAGCGCCAACGUCCUCAACCUCCAAUGCAUCCCACCACAUGAUGAUGCCUGAAGAGCCUUGGUUUUUUG
# Variants of: B1
# Test: polymerase ribozyme fitness, log enrichment relative to wild type (log ratio); higher = more active; in vitro selection for triplet polymerase activity
# In short: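 PCR was used to build mutant libraries for each subunit of a heterodimeric triplet polymerase ribozyme, which were then transcribed. A single in vitro selection round, in triplicate, used a frozen incubation at −7 °C and recovered extended constructs by gel excision, streptavidin beads and RT-PCR. Fitness is the logarithm of genotype enrichment relative to wild-type enrichment, averaged over replicates with inverse-variance weights. The logarithm is base 2, and after Illumina sequencing only genotypes with ≥10 input reads and ≥1 read per output were kept.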
row,Variant,polymerase ribozyme fitness (log ratio)
1,A43U U112C A119U,-0.989
2,A43C U55C U130G,-2.82
3,G44A C72G U112G G117A,-5.1
4,G44U C72G,-1.28
5,G44U G117U,-3.54
6,G45A A46U,-1.72
7,A43U G63C,-2.12
8,A43U G63A,-2.51
9,G44A A119U,-0.987
10,G45C A100G G120C,-3.59
11,A43U G60C C82G,-4.23
12,G45A C102U G120C,-1.47
13,A43G A50U,-3.81
14,A43G C80U,-2.86
15,A43C U55C C64U A84G G110U U125A,-6.14
16,G44U C70U,-2.01
17,A43G C124A,0.39
18,G44C C56U C88U C101U G110U,-3.38
19,G45U A46U C56A G93A,-4
20,G45A G51U G58U A74U C80A,-0.751
21,G45C G58A A121C,0.614

row,Variant,polymerase ribozyme fitness (log ratio)
1,G45A U87C C97A,-3.81
2,A43C C56U,-2.57
3,A43C G44C,-1.05
4,G44U C97G G113A,-5.15
5,A43U G117U,-3.35
6,G44C U54A C82U C114G,-4.01
7,G44U G77A C101A,-1.37
8,G45C C82A C101U,-2.68
9,A43G G60A C79U G93A,-2.95
10,G44A G71A,-2.54
11,A43G G61A G65U,-5.48
12,G44C A46C U54A C88G C97U G113C,-3.49
13,A43G C53A C89G C97G C123G,-5.57
14,G45C U55G G69U G107A,-5.92
15,A43G G58C G60A,-2.53
16,G44C G69A U116C C123U,-5.92
17,G45A G58A A111C A118C,-0.455
18,A43G C56U C79G A111G,-5.35
19,A43C G69C,-4.47
20,G45A G52C C72A C123G,0.812
21,A43U C49A C89U A90C U133G,-1.26

row,Variant,polymerase ribozyme fitness (log ratio)
1,A43C G61C U112A,-5.07
2,G45A A74U U112G,-0.353
3,G45A A103C U106A C115G,-5.5
4,G45C A84G U87G,-3.02
5,G45A A46C C49U C101A U112G U131A,-5.02
6,G44A G113A,-2.35
7,G44U G71C G93A,-3.04
8,G45A G63C,-0.827
9,A43U C56G G63A,-5.13
10,G44A C101U,-1.1
11,G44A C101A,-2.48
12,G44A G52U G63U U87A,-5.6
13,A43G G71C U87G,-4.59
14,A43U G61C,-4.42
15,A43U G61U,-2.41
16,G45A G93C,-1.29
17,G45A G93U,-1.91
18,G44A A121G,1.53
19,G45A A74G C115G G127C,-4.14
20,G44A G60C C124A,0.703
21,A43C C94U,-2.66

row,Variant,polymerase ribozyme fitness (log ratio)
1,A43C C94G,-4.54
2,A43C C123A,-2.65
3,G45A C72A G117U,-2.7
4,G44U A91C G93A,-1.99
5,G44A A111C U131G,-2.35
6,G44C C53G,-1.05
7,A43U C70U,-2.1
8,G44A G52C G58A G120A,-1.3
9,G45A C70A C115A,-0.928
10,A43C G48U U54A G77U G120A G135A,-2.07
11,G45A A95C A111U,-3.67
12,A43U U87G A91C A95G A118G,-1.27
13,G44C C53U C56U C115U G117U G135A,-3.91
14,G44A G71C U125A U129C,-4.8
15,G44C G63A,0.0487
16,G45A C101A,-1.74
17,G44A G47U C94A,-2.96
18,G44C A84C,-0.969
19,G44C A84U,-1.11
20,G44U G52C C82G G113A C124U,-3.3
21,G44U C73U G113C A121G G128A,-4.53
